Test results as given in the DeepSol protein solubility set.

Assay: soluble on expression in E. coli; label from the status in PepcDB or PDB records

| Sequence | soluble on expression in E. coli |
| --- | --- |
| MFGLRTRNQEAESEYRRFIKGLSDSMAMIEFDTRGIILNANDLFLSCVGYTREAIVGKHHSIFCDRGYVQSPRYQQFWDDLKMGKHKRGTFERLTSQRERLVLEASYFPIESEHGQIEKVVKIASDVTQQRLESEQKEAILNALDLSLATIEFDREGYILTANQNFLKTLGYELSDVQGKHHKLFCFDDFYQENPGFWKDLAAGQFKSGQFLRRSASGDKVYIEATYNPIFDPAGNVIKVVKFASDITDKVQRDLNISQAIADSSFIARNASEEATSNVCGAEHSLNEFRTMIEEVLRAVTACDDK | not soluble |
| MFQGCYGGTQKHEPDLHIVLERAWQQGLQKVIVTAGCLKDVDEALELASKDERIYTTVGTHPTRCEEFVPDPEGYYDQLRSRIKANRTKVRAVGECGLDYDRLHFCAQETQRLYFEKQLDLAAEFKLPLFLHMRNAAEDFMGILERNRNKIEECGGGVVHSFTGTLEEAQRILAFGGLYIGFNGCSLKTDENAEVVRKLPNDRIMLETDCPWCGIRPSHAGHKHVTTKFPTVKKKEKWTAESLIDGRCEPCQISQVLESIAGIKQEPKEQLAALYYQNTLDLFFGTGESKELEHHHHHH | not soluble |
| MSLKQAIFVMMDQYADWEGAHLSSQLNQMTDWTVKTASNQPEVTSIGGWTTRVDYQISELNPEMTLLVLIGGNAWQHDDPRLTALIQQCLQRKVIVGAICGAVDYLARNGLLTGYRHTGNAQFSWQSFPKYQNPTDFELQQVVVDRQLVTANGTAALSFTSAVLKASGQLTIAAKQALDLQQLGYYDNTETHLNEGHHHHHH | not soluble |
| MTKNKSVARDERYYKAYLESRTISRRGLFRGLLKGVQPSTTTAPSDITAPPPLRPPYAIDEPHFQQSCTGCGVCVAACEENLIVMVNQRPALNFSTPYFSTPYCSRCQACSTACQTGALSSAEFHIAARPSVKNICQNTYIYCDSCADYCEKQALIWQANQPPTLVTELCDGCGECVFRCPARILEMQI | not soluble |
| MEILIATGRLAENTVRKAAGEKADVLVADIDIAAFITPKKLTRAFEEAGLSKKYDLILLPGLVPGDFSKVSDELDCKIRLGPKHAYDLGFVLRFAEEVEFSVKVPACELLADVRKEEALELIREAEEEAVSPLSLRGVKLGGNSRMKVMGEIVGAAELNPADLEIKIEAFIARGADIIDLGATLNTLPGQVRSTVFLAKSLTDIPISIDTLDPELIKEGIEAGADLVLSLNSTNMETAGSVVAKAGVAAVIIPDEGNSLESLVNNIESARRLGIERIIADPILDPVGHNITESIVRYHEFHRRYPDIPLFFGAGNVTELMDVDTIGVNATLCGIGAETGASILFTPEYSDKAQGSIGELKKASEMMQLCRIRESSPKDLGIDLLFIKEKRKRPDSPLPKKVITARASKNWRQDPAGPIRVRIVPDKINGNGGLIVAEHEKAAIAGESAREVMDTLIELELVSSLDHAAYLGRELEKAELALRFNRSYAQDDIF | not soluble |
| MAHHHHHHMEEGDQATDAAETSALAANTLTREEQPDERSKNEVTLLEIKRKVQNEKEAQKDDNKQRKFKIINYTSKDSLVSKVEKEFFLFFCFLCGFNCLISETDVADLPRRKTDGSIIFPFKKIVHKKYYKTKKECILIRRREDALEVQFRILCKECGVPIGYVNSLADDNAYVYYYDYSFVRSQTKSRLFKDVSL | not soluble |
| GAMDENDEGVRGTCEDASLCKRFAVSIGYWHDPYIQHFVRLSKERKAPEINRGYFARVHGVSQLIKAFLRKTECHCQIVNLGAGMDTTFWRLKDEDLLPSKYFEVDFPMIVTRKLHSIKCKPPLSSPILELHSEDTLQMDGHILDSKRYAVIGADLRDLSELEEKLKKCNMNTQLPTLLIAECVLVYMTPEQSANLLKWAANSFERAMFINYEQVNEGKSLESQKERLLSNGWETASAVDMMELYNRLPRAEVSRIESLEFLDEMELLEQLMRHYCLCWATKGGNELGLKEITY | soluble |
| MGSDKIHHHHHHMRRALRPSMELISARTSSTSSIWTPRVSQSSELVFDATGCCSSLSGSSACDRGDGIVRGITMDRQRLQALGHKVRMIPAQFVKPHVKSNKSDIIDAEAIAEAATRPTMRFAAIKSEEQADLQALHRVRDQMIGTRTRLINQMGAFCLEYDIALRQGAGLFKLDLPLVLDDLE | not soluble |
| MLDFAQLPPEVNSALMYAGPGSGPMLAAAAAWEALAAELQTTASTYDALITGLADGPWQGSSAASMVAAATPQVAWLRSTAGQAEQAGSQAVAAASAYEAAFFATVPPPEIAANRALLMALLATNFLGQNTAAIAATEAQYAEMWAQDAAAMYGYAGASAAATQLSPFNPAAQTINPAGLASQAASVGQAVSGAANAQALTDIPKALFGLSGIFTNEPPWLTDLGKALGLTGHTWSSDGSGLIVGGVLGDFVQGVTGSAELDASVAMDTFGKWVSPARLMVTQFKDYFGLAHDLPKWASEGAKAAGEAAKALPAAVPAIPSAGLSGVAGAVGQAASVGGLKVPAVWTATTPAASPAVLAASNGLGAAAAAEGSTHAFGGMPLMGSGAGRAFNNFAAPRYGFKPTVIAQPPAGG | not soluble |
| MQQQETFRHILSVLVQDVDGIISRVSAMFTRRSFSLVSFVSGKTEMHGINRITIVVDASTQDIEQITKQLNKLIPVLKVVRLDEDVTVARALMLVKVSADASNRPQVVDAAKIFRAHVVDVAPDSVVIEATGNKGKLRALLDVLEPFGIRELISSGQIALNRGSKTMAPQSSRS | not soluble |
| MAHHHHHHMASSALDEMKEQMLRRWKEDQKKIDDLRKKHGHEKLCDATIDAVYGGMRGITGLVYEPSLLDPAEGIRFRGLTILECQEMLPKAPGGKEPLPEAMFWLLMTGEVPTEEQVRGLNAELHRRADPEAIAAAQKAIAALPRNAHPMTAFSVGVLALQSYSKFAAAYAAGKSNKKTYWEYALEDSLDMLARTPAVVAMICNRETKGQVELAAPSNSDLDWAANFAKMMGYQDEEFWECMRLYLSVHADHEGGNVSAHTTTLVASALSDPYLAFSAGLNGLAGPLHGLANQEVLNYLLSMQERVKADGVNMHDEAALEKALSNYTWELLNSGQVVPGYGHAVLRKVDPRYTCLRNFCLRHKFDDDLFKLVNTIYLIMPGILKEHGKTKNPYPNVDAHSGVLLQHYGMTNQNCYPVLFGLSRQMGVLAGVVWDRLQGRPLERPKSITTEMLAKKYLCNSL | not soluble |
| MSLADVDTGTLTIKGNIAESPCKFEAGGDSVSINMPTVPTSVFEGKAKYSTYDDAVGVTSSMLKISCPKEVAGVKLSLITNDKITGNDKAIASSNDTVGYYLYLGDNSDVLDVSAPFNIESYKTAEGQYAIPFKAKYLKLTDNSVQSGDVLSSLVMRVAQDEGHHHHHH | soluble |
| MSLSAMARKVKITDVKCMIVRGTWDWNLIKIETDSGLYGIGEAYWGWGVKDLVVNKMKGIIVGEDPLNVDKLYTKMLMQSAGAGAIGGVTMTAASGIEIALWDLCGRILDTPVCNLLGGRFRDRIRFYRTTQAVKNVEDTKEWRALAESARAEKWGWTAFKFQGDGIPPRADPEFKEPGHDPYARNLTHKDHRRIVTAMETVRETLGPDADFAVECHWRYDTQDVISLGKELEPVKPMWLEDPVPPDNIEAMQRVTHAINVPVCTGENLYGRQGFRKLIEMQACSGVHIDIPKSGGLMESKKISDLADLYYIWTACHNPASPVGTIASCHASAAMREFRIHELANWVDWWPDLVIREGPFWKDGYFTIQDKPGYGVELNPDVAKAHLAPGETWWGEGHHHHHH | not soluble |
| MGSDKIHHHHHHMPRNLPPLYALRAFEAAARHTSFTRAAEELSITQSAVSRHIRTLEEHFACRLFQRNGRNLQLTESARTLLPGVRDGFLALERACSTLQTDEGVLRMKAPSTLTMRWLLARLSRFRHLQVGNEVQLTSAWMDIDAVDFTREPFDCAILLSQGHFPSDWEATLLFAELLIPVGAPTLSQDPPWDVERLAKAELLHPTPDRRDWRTWLNRMGLADQVSLKGGQVFDTLELGMIAAARGYGVSMGDLLMVAEDLAQSRLSLPWRTAVFSGENYYLVWPRTRPGAERLRRLSDFLQAEVKAMKLPLVEVLR | not soluble |
| MASDGVVVEIGKVTGSVGTTVEIPVYFRGVPSKGIANCDFVFRYDPNVLEIIGIDPGDIIVDPNPTKSFDTAIYPDRKIIVFLFAEDSGTGAYAITKDGVFAKIRATVKSSAPGYITFDEVGGFADNDLVEQKVSFIDGGVNVGNATPTKGATPTNTATPTK | soluble |
